Test results: the domain aggregation screens of Martell et al. (2025)

Test: soluble fraction after stress (log2 fold change); higher = more stays soluble; pooled small domains, quantitative proteomics
Settings: stress: pH 4
Procedure, shortened: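 Pooled custom libraries of small protein domains were subjected to pH 4 and measured by high-throughput quantitative proteomics. The log2 fold change in soluble amount per domain is reported, higher values meaning more remained soluble. This is used as a measure of aggregation propensity.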

Point of comparison: “HMNKKETRLNNFIHFLKIRNSITVKEMANHLNVSEMTVRRDIKELTADHTINFENGKIMFNPQSSL”, “soluble fraction (log2)” value 0.33. Against it:
- HMNTTLQLDTILRLEKNAHLLENFVRAGFTDSELGKLTDADLLQIGVPKIGDRRRLLAALAERAH — lower, -0.29
- HMGADRLVGMTAIVTATIDPNDTDRKGRVQVEGEVWSALSDGRLIITEGSKVRITEMHGTRVRVEAI — lower, -0.884
- HMAGVSVTSLTTFWRLAADTPDTPSGADDPSGWSRTEPSIPDGYEGKLYRTIRTIMSDGTATWTSPD — lower, 0.0531
- HMSSTSISFNDFQKYWLSNDIKSFQLREDKMTVQGSLKNGTAYETVVPSERLFQFIGQHPKD — lower, -0.127
- HMGAPLAVGDSVRVVVSGPRAFVYTAPNGALSGAVRNGAAFTVLELSPDNTWARIGSGEWIKVEFLATG — lower, -0.373
- HMKEVKPSDFFLSKLDEDHNLIEKFNALSSFKQKEFIEYIDSAKQEKTKHDRFEKIKPILLSNIGLNDKYR — lower, -0.102
- HMGEAYVVPNVKNKTLGEAQLALHNQKLEGLVVDSSYVKGLPDGMILDQNPAGGARVKEGRTIYLTITTS — lower, -0.146
- HMKVSAEEQNILDALQAAGGYLPFHDKSNPEEIYEAFGISKKTFKMIIGSLYKQQKINLTQTGIQLII — lower, -0.637
- HMLETADDAKRFLGAIISEKKAENLLRVYPDIIERIVAGKPVDLSLVKGIKQKTFDKLRQKVISHYSMY — lower, -0.0382
- HMSDNHYLLEIFLADLKSDEKFIRELAIFQLHHHIESDKVRAELKAAAETESDPYLKGMIESLLSSTS — lower, -1.2
- HMEKRIIMLEELKKQVYEANMELPRRGLITYTWGNVSGIDRESGNFVIKPSGVDYDKLKPEDMVVMDL — lower, 0.0555
- HMSSPVIQINTRNDGWIIKLLQPAVEKDVLEGYLADVGLKLQSQMMEKILAAPAGTEFHIKRGSNILTE — lower, -0.133
- HMSPSRRENLTAAAKEYFVNTQIRHKTFGNGVIIKRSGNIAAIRFDNGTIKQIDLIAALQAKVLSIL — lower, -0.512
- HMRGQLADLWLPREQARRAAEIVAARPVPLGSVKTWIARGKLAPRKTGTGPALYRVGALVSLLAKS — within 0.2 log units, 0.133
- HMSLEDNEVIQRMKVILDRFDEETAVDRTTAFKAVLDHIGKMDAESKTLEHMAEMLEALLDKVLEE — lower, -0.371
- HMPGRLSRREVEVIELTARGLPAAEMAVRLGISANTIEFHRRRIMQKLGVANAAEMVRRATELGW — lower, -0.905
- HMQSANQLIKLSRKRKGLTQQELADQAGVSLRTVQRIEKGTEEISGFSLKQISQILEIPLEQLIM — lower, -0.652
- HMMTLEESYKLLQVSHNASDIEITKAFKKLALLYHPDKNPSNIDWANKAMASINVAYNTIITHRFKEK — lower, -0.2
- HMTEFDVIMKSFGSEKIKVIKEVRAITGLGLAEAKALVEGVPAKIKEQVSKDDAEALKKQLEAVGAEVEL — lower, -0.76
- HMNVEALIGREGRVTDKIEANGYGRVKVDGDSWKAKSANGAEIRQNTDVRILSIDSVIITVEP — within 0.2 log units, 0.22
- HMPSREDFAYDSIKEAILSGELLPNQKISLSDLANKLGISIIPVNSAVGRLVAEGLVRQDPHHSPYVV — lower, -0.31
- HMGRKRLADYGLNDTEQKIVRKIADGLSNREIAQALYLSEGTVKNYITDILGKLELRDRTQIAIFYLREIG — lower, -0.244
- HMKALYHQLVDLLKKRMESGMIPHDKLPSERELTAQYGVSRTTVRLALQELENTGYIYRRHGKGTFVSDI — lower, 0.1
- HMSYLELENLAEDIKATYDNLSTDLREVFRLSDIEGLSYEEISNKMNIPIGTVRSRLHRARETLLRIFNN — lower, -1.22
- HMYTVQPHESLWSIAASQLGDGHRFTEIVDLNQELLGGKANFIKPGWVLQIP — lower, -0.911
- HMPRDQQENIYLLEKGKRLYEEHLGDQRQIIGHRIMIFERILESQDHAQIRRAQSEFAEFLSHYDG — lower, 0.111
- HMRLSVVDLQDSLRGLEYPAGKGDLINHAREHNASADVIAVLEQFSERTYRSAADVGEEFGRV — lower, -0.166
- HMEAFELTPREKQVLQLLVQGKAYKIIAADLDITYDTVRAHIKKIYEKLHVGSMTEAVAKAIQHKL — within 0.2 log units, 0.194
- HMSMDYYNILGVNRNASTGEIKKAYKRASMQHHPDRGGNSDEFIKVQQAYDTLSDNHKRQAYDNP — lower, 0.0506
- HMFNFPEEVRVQLAKSEQLRNLLIPMSETVRDALSGEELWFGRTIFNTTSKKIESWTNPGVWVE — lower, -1.28
- HMYEDNERNLYSVVINFLNEHKIKISREAINLVINRSSGDKHNLKQELNKILNYSFSNKNITYETIEKLSN — lower, 0.0456
- HMQPHLSADEEHLLKILGSDTMHIDALVKRSTLETSNALAALAFLEMKGLVKNIGNMHYIRTYR — lower, -0.518
- HMGTSIMIIIVKPETKKERVNDLIHWIESQNLRTHLSTGDYSTIIGVIGDTSKLDSELIRGLDIVENVKRV — lower, -1.24
- HMSDLGEIEKIVDEVLAENITKVQEYKDGKKGLMGMFMGQIMKKSGGKADPKIANQLLTEKL — within 0.2 log units, 0.138
- HMNMEDIADKIGRLYDNLPDDLKLMIKYRDIDDMTYDEIARKANLPIGTVRSRLHRARDILLREI — lower, -0.108
- HMDGLDFIINENGKIANINEEGELLAKGENIMLGYYKDSISTNNTINNGWLHTGDIAKIDNDGFIYL — lower, -0.123
- HMVPVQLTPRELQVARLAAHGASSPEIAAELRVSRRTVDNQLGRVYAKLGIAGRAELAAALSRLPVSV — higher, ≥ 0.43
- HMIDTLEYIISEESKGLRADQAITMVNGEFSRSLIQKWIKKGSILVNGKKIKPRDILNLNDKVTINPEEN — lower, -0.633
- HMGTGQTNEKLAVLTNIQKTQEQILLTLGAKNPLVNLKQYRETLAKILSLSGYKNSNEFFLDPM — lower, -0.25
- HMDLAENWKDDADITLAEYNAIRSRYKPGKLHRDTEFMIARDMLIRPETVLAIAHSRFSNVHTHPV — lower, -0.771
- HMGPGFVGGSVLSGGNRGEGDPVANAQVFITDMDDNVVAFTKTDAEGNFDMTNLAYGDYKMYVDILNK — lower, -0.741
- HMDGVEVVTKPAGAQIEFAGKSYGPSPVHIPGLVAGSQLILRLPGFQAATVRLRTAPDKSKALEYTLQPA — lower, -0.0155
- HMNLRLKEVLDEKNMSLVTLSEKTGIEKGNLSAISNNKKNPTVETLSKIAKALQISLAELFESPP — within 0.2 log units, 0.169
- HMAIRPDAAVSSHAVKQRLQSLIRAEDPAAPLSDEALRLALSALGIGVSRRAVAKYRAEMGIPSSSQRKK — within 0.2 log units, 0.168
- HMRFSYLNIETRKDISSLINKSEITHSSYNNNEYLYKIKSKKTDDFKDLISLIDEKDLISYSIDS — within 0.2 log units, 0.258
- HMNIQGIFGRNLKQKRLEKGMTQEQLAEKAGVSTDTVKRYESGKYDGIRLDMAWYMANALDTPLQALLPP — lower, 0.0744
- HMTKLLITNYERNVLINSYLLKNTPELDDIRRLLVHNKHISENDVSTEMARRIKKHKADWLRVT — lower, 0.00962
- HMKLTEGETIFLNESDTADWKKIPGIGSVYASRIVKYRNLLGGFVSVNQLREVYGIDDELFAKIYPYI — lower, -0.0375
- HMNKNIKIPNISNLSREDAESVLKESGISVSTEIKEVESDTIEKGKVVKTEPSIGSTVKQGRTITIYISSG — lower, 0.092
- HMFAATGTVNTEGSSLRLRAEASTSSSVLKQLSHGTQVDVLSGLVDGWYQVSYKGTTGYVSGEYLTVTE — lower, -0.000126
- HMKKYISEEQAKQAALETAGGGSVVKIKFTTDDGIKVYEIDIINGNYEYEITVHAETGKILDVDKERIH — lower, -0.404
- HMNQIDEATAATITTLNFLNTNSEFKIPVGDTATRPGTPAIGMMRFNSENDKAEIYVADFDGDGNPGWINL — lower, -1.52
- HMPKLSNNHMAVWQAIRSRTAKGEPSTRAVIRDDLKAAGMDTSKHFSRWLTKLIDLGMVVKDGENLSIR — within 0.2 log units, 0.219
- HMKEILLITGKGLHSGQDDVYKSAQLSKLRYSVPEFIKSNLEISQLILSVETPLQKDGGDGALLIK — lower, -0.192
